Laboratory results: patent publication US10273464B2, “Methods and isolated protein compositions for isoprenoid diphosphate synthesis” (The Salk Institute for Biological Studies, priority 2009, dated 2019)
Where two headings read alike, the source gives them in different places.

Key:
[1] = read-out: Km value for ATP; cited from earlier work
[2] = read-out: Km value for UMP; cited from earlier work
[3] = pyruvate kinase-lactate dehydrogenase coupled assay, IP as variable substrate; type: biochemical; conditions: 25° C.
Description: All specific activity and kinetic measurements were performed using the pyruvate kinase-lactate dehydrogenase coupled assay with reference to a previously established protocol (Lindsley, 2001, Methods Mol. Biol. 95:57-64.). The reaction includes the following components in a 200 ul volume: 7 U pyruvate kinase, 10 U lactate dehydrogenase, 2 mM phosphoenolpyruvate, 0.16 mM NADH, 50 mM TRIS HCl pH 8.0, 100 mM KCl, 8 mM MgCl2, 4 mM ATP, and variable concentrations of IP (purchased from Larodan Fine Chemicals). The reaction was initiated by the addition of IPK (0.15 ug) and was followed by observing the depletion of NADH at 340 nm over time, expressed as Δ(AU340)/Δt, which was converted to Δ(ADP)/Δt. These values were then plotted against substrate concentration in GraphPad Prism® (Version 5.01 for Windows) to compute the kinetic parameters kcat and Km using the “nonlinear regression enzyme kinetic analysis” option.
From the results discussed above, it is evident that His60 from IPK plays an important role in both substrate and product binding. This is accomplished through a hydrogen bonding interaction between the Nε2 atom of His60 and a non-bridging O atom from the terminal phosphate group on either the substrate (IP) or the product (IPP). From all crystal structure data, it is apparent that the Nε2 group of His60 (and not the Nδ1 group) is relevant for binding and may therefore be reasonably assumed by one skilled in the art to be relevant for IPK-mediated catalysis. To confirm this hypothesis, His60 was mutated to Ala, Asn, and Gln. The Asn and Gln mutations were made based on the rationale that their side chains contain N atoms that are isosteric with the Nδ1 and Nε2 groups on His, respectively.

[4] = coupled IPK / 5-epi-aristolochene synthase (TEAS) vial assay, GC-MS, FP to FPP conversion; type: biochemical; conditions: 10 μM IPK, 150 μM FP, ATP, Mg, pH 8.0, 20 minutes at 55° C.; 5-epi-aristolochene quantified by GC-MS
Description: FIG. 10: Assays of IPK and mutants. The single mutants of IPK, I86A and I146A, and the double mutant I86A/I146A, were tested with the C15-substrate farnesyl monophosphate (FP) using a coupled assay with a terpene cyclase (TEAS). In the first step of the reaction, IPK was incubated with magnesium, ATP, and FP at pH 8.0 for 20 minutes at 55° C. (assuming sufficient time for conversion of FP to FPP). In the second step of the reaction, a small sample of the first reaction was added to a glass vial containing magnesium and a sesquiterpene cyclase known as tobacco 5-epi-aristolochene synthase (TEAS), and this reaction was incubated overnight at 25° C. Assuming complete conversion of FPP to 5-epi-aristolochene, the reaction was extracted with ethyl acetate and the amount of 5-epi-aristolochene was quantified by GC-MS analysis.
FIGS. 11A-11B: Farnesyl phosphate (FP) phosphorylation by IPK chain length mutants. FIG. 11A: FIG. 11A depicts the coupled IPK-sesquiterpene synthase reaction used to test for FP transphosphorylation. FIG. 11B: FIG. 11B depicts comparative bar graph showing several IPK mutants qualitatively tested for their ability to convert FP to FPP, expressed as a percentage of maximal production of 5-epi-aristolocene produced from IPK-generated FPP using wild-type IPK and identical concentrations of wild-type tobacco 5-epi-aristolochene synthase incubated for equivalent lengths of time.
IPK mutants (at a final concentration of 10 μM) were incubated in a 50 μl reaction with 150 μM farnesyl monophosphate (FP), 7 mM MgCl2, 4 mM ATP, and 50 mM TRIS.HCl pH 8.0 for 20 minutes at 55° C. 10 μl of this reaction was then added to a 500 μl reaction containing 45 ug of the terpene cyclase 5-epi-aristolochene synthase (TEAS) and 10 mM MgCl2 in a 3-component buffer system (25 mM MES, 50 mM TRIS.HCl, 25 mM CAPS) at pH 7.0. A method known as the “vial assay” (O'Maille et al., 2004, Anal. Biochem. 335:210-217) was employed by overlaying this aqueous layer with 500 μl of ethyl acetate, incubating overnight at 25° C., and vortexing to extract the terpene product into the organic layer prior to quantitative GC-MS analysis. Both negative and positive control reactions were conducted as follows. For the negative control, no IPK was added to the first reaction. For the positive control, […] of FPP (equivalent to the amount that would be present assuming complete FP to FPP turnover) was added to the TEAS reaction.
Similar studies were conducted using FPP modeled into the active site of IPK. The reaction of IPK on FP to form FPP is depicted in FIG. 10. The I146A I86A single-residue mutations, and the […] double mutation were tested with the C15-substrate farnesyl monophosphate (FP) using a coupled assay with a terpene cyclase (TEAS). In the first step of the reaction, IPK was incubated with magnesium, ATP, and FP at pH 8.0 for 20 minutes at 55° C., which was judged as sufficient time for conversion of FP to FPP. In the second step of the reaction, a small sample of the first reaction was added to a glass vial containing magnesium and a sesquiterpene cyclase known as tobacco 5-epi-aristolochene synthase (TEAS), and this reaction was incubated overnight at 25° C. Assuming complete conversion of FPP to 5-epi-aristolochene, the reaction was extracted with ethyl acetate and the amount of 5-epi-aristolochene was quantitated by GC-MS analysis.

[5] = pyruvate kinase-lactate dehydrogenase coupled assay, Km for ATP; type: biochemical; conditions: 25° C.
Description: All specific activity and kinetic measurements were performed using the pyruvate kinase-lactate dehydrogenase coupled assay with reference to a previously established protocol (Lindsley, 2001, Methods Mol. Biol. 95:57-64.). […] The reaction was initiated by the addition of IPK (0.15 ug) and was followed by observing the depletion of NADH at 340 nm over time, expressed as Δ(AU340)/Δt, which was converted to Δ(ADP)/Δt. These values were then plotted against substrate concentration in GraphPad Prism® (Version 5.01 for Windows) to compute the kinetic parameters kcat and Km using the “nonlinear regression enzyme kinetic analysis” option.

[6] = measured in one instance (other than Table 4)

Molecule	Km [1] [µM]	Km [2] [µM]	Km [3] [µM]	kcat [3] [s⁻¹]	conversion (phosphorylation) of FP to FPP [4]	Km [5] [µM]	Km [3, 6] [µM]	Km [5, 6] [µM]
UMPK from Sulfolobus solfataricus: uridine monophosphate kinase from Sulfolobus solfataricus, literature comparison (Jensen et al., 2007) (protein, UniProt Q97ZE2 1-227, looked up) Uridylate kinase: MMNIILKISGKFFDEDNVDNLIVLRQSIKELADNGFRVGIVTGGGSTARRYIKLAREIGIGEAYLDLLGIWASRLNAYLVMFSLQDLAYMHVPQSLEEFIQDWSHGKVVVTGGFQPGQSTAAVAALVAEASSSKTLVVATNVDGVYEKDPRIYADVKLIPHLTTQDLRKILEGSQSVQAGTYELLDPLAIKIVERSKIRVIVMNYRKLNRIIDILKGEEVSSIIEPV	81	14						
IPK-Mjannaschii: isopentenyl phosphate kinase from Methanocaldococcus jannaschii, SEQ ID NO:1, wild type (protein, listed as Methanocaldococcus jannaschii) MLTILKLGGSILSDKNVPYSIKWDNLERIAMEIKNALDYYKNQNKEIKLILVHGGGAFGHPVAKKYLKIEDGKKIFINMEKGFWEIQRAMRRFNNIIIDTLQSYDIPAVSIQPSSFVVFGDKLIFDTSAIKEMLKRNLVPVIHGDIVIDDKNGYRIISGDDIVPYLANELKADLILYATDVDGVLIDNKPIKRIDKNNIYKILNYLSGSNSIDVTGGMKYKIEMIRKNKCRGFVFNGNKANNIYKALLGEVEGTEIDFSE			4.3 ± 0.6	1.46 ± 0.03	significantly less phosphorylation	198		
IPK-Mmaripaludis: isopentenyl phosphate kinase homolog from Methanococcus maripaludis, SEQ ID NO:8 (protein, listed as Methanococcus maripaludis) MFAILKLGGSILCDKNVPYSINWENLENIAIEIKEAIEYYSSKNEDFKLIIVHGGGSFGHPVAKKYLKNEKFEDMGKGYWEIQKAMRKFNNIVIEELQNFEPAVSIQASSFITFNHKSNLHFDTNAIEKMLDKGLIPVIHGDIVIDEKTDNFKIFSGDHALPFLSKKLNPDLSLHASDVDGVWDSEFKIIENINSKNIEDVLKSLKPSNKEDVTGGMHLKVMECYNLGIETIIFNGNKKRNIYNALLKNVKGTLIN			21.4 ± 4.2	13.1 ± 0.5			16.1	96 ± 6
